Assay results taken from paper PMC13458718, “HSV-1 origin binding protein UL9 forms intermolecular DNA tethers and intramolecular DNA loops” (Nature Communications, 2026).

Legend:
[1] = target: T1, HSV-1 UL9 (origin-binding protein UL9) (Human alphaherpesvirus 1 strain 17, UniProt P10193); experiment: single-molecule TIRF (ALEX), UL9-atto647N dwell time on oriS DNA; settings: 1 mM ATPγS, 20 nM UL9-atto647N, 1 mM MgCl2, pH 7.5; not an affinity constant
T1 construct: full ORF from plasmid pCM-UL9, C-terminal 3C-ybbR-TEV-StrepII tag, insect cells (Sf9/High5), StrepTrap and heparin; dimer; tag kept in unlabeled protein, TEV added on atto647N labelling

[2] = target: T2, UL9 origin-binding protein (Human herpesvirus 1 (HSV-1)) (UniProt P10193); experiment: EMSA; settings: C6-amino-dT at 5' end of strand 1 and internal (position 10) in strand 2; UL9 buffer: 40 mM Tris-Cl pH 7.5, 50 mM NaCl, 50 mM K-glutamate, 1 mM MgCl2, 0.5 mM DTT, 0.1 mg/ml BSA; EMSA at room temperature, 5 min; TIRF with oxygen …
T2 sequence: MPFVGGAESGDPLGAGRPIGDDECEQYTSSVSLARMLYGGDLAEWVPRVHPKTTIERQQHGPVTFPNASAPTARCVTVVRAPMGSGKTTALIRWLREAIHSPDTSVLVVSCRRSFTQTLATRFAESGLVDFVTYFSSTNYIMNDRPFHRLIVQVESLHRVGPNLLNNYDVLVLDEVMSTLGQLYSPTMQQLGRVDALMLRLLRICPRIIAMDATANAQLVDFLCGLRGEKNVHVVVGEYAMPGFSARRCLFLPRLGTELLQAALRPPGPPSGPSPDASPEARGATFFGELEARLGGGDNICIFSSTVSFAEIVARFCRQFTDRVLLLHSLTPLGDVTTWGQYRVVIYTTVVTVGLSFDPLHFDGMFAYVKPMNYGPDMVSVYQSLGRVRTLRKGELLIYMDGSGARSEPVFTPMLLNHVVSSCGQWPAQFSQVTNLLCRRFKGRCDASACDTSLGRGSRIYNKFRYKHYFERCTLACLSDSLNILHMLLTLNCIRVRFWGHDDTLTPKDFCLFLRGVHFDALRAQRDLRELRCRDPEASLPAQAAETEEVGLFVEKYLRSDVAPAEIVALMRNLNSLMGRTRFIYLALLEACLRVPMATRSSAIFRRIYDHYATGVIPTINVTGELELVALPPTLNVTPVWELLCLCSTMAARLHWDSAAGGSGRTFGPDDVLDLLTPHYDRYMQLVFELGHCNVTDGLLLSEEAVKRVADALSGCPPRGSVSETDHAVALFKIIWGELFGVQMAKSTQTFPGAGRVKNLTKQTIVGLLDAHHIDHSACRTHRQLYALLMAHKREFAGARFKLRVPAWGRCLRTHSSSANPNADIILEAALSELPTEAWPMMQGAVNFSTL

[3] = target: T3, UL9-atto647N (Human herpesvirus 1 (HSV-1)) (UniProt P10193); experiment: single-molecule TIRF/FRET; settings: C6-amino-dT at 5' end of strand 1 and internal (position 10) in strand 2; UL9 buffer: 40 mM Tris-Cl pH 7.5, 50 mM NaCl, 50 mM K-glutamate, 1 mM MgCl2, 0.5 mM DTT, 0.1 mg/ml BSA; EMSA at room temperature, 5 min; TIRF with oxygen …
T3 sequence: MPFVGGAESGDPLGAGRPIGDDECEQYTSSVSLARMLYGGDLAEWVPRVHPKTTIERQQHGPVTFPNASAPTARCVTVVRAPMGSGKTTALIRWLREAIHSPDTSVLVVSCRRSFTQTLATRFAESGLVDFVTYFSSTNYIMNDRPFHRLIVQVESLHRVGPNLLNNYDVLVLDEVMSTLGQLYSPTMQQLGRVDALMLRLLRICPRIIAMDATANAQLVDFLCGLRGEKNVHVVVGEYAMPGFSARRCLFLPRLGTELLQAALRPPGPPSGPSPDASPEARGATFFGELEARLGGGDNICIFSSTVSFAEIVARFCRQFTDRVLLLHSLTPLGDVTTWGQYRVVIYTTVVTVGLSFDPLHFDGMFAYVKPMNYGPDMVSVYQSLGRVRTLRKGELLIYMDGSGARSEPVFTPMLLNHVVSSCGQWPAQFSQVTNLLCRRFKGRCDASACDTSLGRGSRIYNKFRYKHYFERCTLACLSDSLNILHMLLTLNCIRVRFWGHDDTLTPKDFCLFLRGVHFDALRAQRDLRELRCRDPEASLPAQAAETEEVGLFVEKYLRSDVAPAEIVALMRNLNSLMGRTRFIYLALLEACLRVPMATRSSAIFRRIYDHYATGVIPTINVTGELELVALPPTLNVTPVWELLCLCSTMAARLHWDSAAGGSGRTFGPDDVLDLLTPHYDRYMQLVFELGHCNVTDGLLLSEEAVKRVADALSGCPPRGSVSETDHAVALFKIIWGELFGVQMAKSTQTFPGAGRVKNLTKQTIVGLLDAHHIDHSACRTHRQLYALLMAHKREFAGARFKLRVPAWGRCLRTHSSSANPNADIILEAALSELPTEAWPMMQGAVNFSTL

[4] = target: UL9 origin-binding protein (Human herpesvirus 1 (HSV-1), UniProt P10193 1-851); experiment: single-molecule TIRF DNA capture; trans tethering to immobilized oriS (30.0 ± 6.9% of molecules); 20 nM UL9, no ATP; UL9 buffer: 40 mM Tris-Cl pH 7.5, 50 mM NaCl, 50 mM K-glutamate, 1 mM MgCl2, 0.5 mM DTT, 0.1 mg/ml BSA; EMSA at room temperature, 5 min; TIRF with oxygen scavenger; settings: protein: recombinant; tags: C-terminal 3C-ybbR-TEV-StrepII; chain copies: 2; label: Cy5 on strand 1; strand 1 5' overhang 1 nt (amino-dT)
[5] = target: the molecule itself; experiment: single-molecule photobleaching steps (prism-TIRF with alternating laser excitation)

Q: For Nc1ncnc2c1ncn2[C@@H]1O[C@H](COP(=O)(O)OP(=O)(O)OP(O)(O)=S)[C@@H](O)[C@H]1O [ATPγS], which “τon, avg” value [1] is on record?
A: 4.2 ± 0.1 s

Q: How did the K half [2] turn out when “TCCAGTGCTCGCACTTCGCCCTAATAATATATATATATTGGGACGAAGTGCGAACGCTTCGCGTTCTCACTTC / AAAAAAAAATGAAGTGAGAACGCGAAGCGTTCGCACTTCGTCCCAATATATATATATTATTAGGGCGAAGTGCGAGCACTGG [oriS template AM057/AM071]” was run?
A: 13 nM

Q: And the Kd [2]?
A: 0.131 µM

Q: And the Kd [3]?
A: 0.0319 µM

B1: Cy5-oriS capture DNA AM057/AM058 (dsDNA)
DNA 1: TCCAGTGCTCGCACTTCGCCCTAATAATATATATATATTGGGACGAAGTGCGAACGCTTCGCGTTCTCACTTC
DNA 2: GAAGTGAGAACGCGAAGCGTTCGCACTTCGTCCCAATATATATATATTATTAGGGCGAAGTGCGAGCACTGG
modifications: C6-amino-dT at 5' end of strand 1
Q: Does B1 bind [4]?
A: binds

B2: HSV-1 origin-binding protein UL9 labelled at its C-terminus with atto647N through a ybbR-tag (natural protein)
chain: MPFVGGAESGDPLGAGRPIGDDECEQYTSSVSLARMLYGGDLAEWVPRVHPKTTIERQQHGPVTFPNASAPTARCVTVVRAPMGSGKTTALIRWLREAIHSPDTSVLVVSCRRSFTQTLATRFAESGLVDFVTYFSSTNYIMNDRPFHRLIVQVESLHRVGPNLLNNYDVLVLDEVMSTLGQLYSPTMQQLGRVDALMLRLLRICPRIIAMDATANAQLVDFLCGLRGEKNVHVVVGEYAMPGFSARRCLFLPRLGTELLQAALRPPGPPSGPSPDASPEARGATFFGELEARLGGGDNICIFSSTVSFAEIVARFCRQFTDRVLLLHSLTPLGDVTTWGQYRVVIYTTVVTVGLSFDPLHFDGMFAYVKPMNYGPDMVSVYQSLGRVRTLRKGELLIYMDGSGARSEPVFTPMLLNHVVSSCGQWPAQFSQVTNLLCRRFKGRCDASACDTSLGRGSRIYNKFRYKHYFERCTLACLSDSLNILHMLLTLNCIRVRFWGHDDTLTPKDFCLFLRGVHFDALRAQRDLRELRCRDPEASLPAQAAETEEVGLFVEKYLRSDVAPAEIVALMRNLNSLMGRTRFIYLALLEACLRVPMATRSSAIFRRIYDHYATGVIPTINVTGELELVALPPTLNVTPVWELLCLCSTMAARLHWDSAAGGSGRTFGPDDVLDLLTPHYDRYMQLVFELGHCNVTDGLLLSEEAVKRVADALSGCPPRGSVSETDHAVALFKIIWGELFGVQMAKSTQTFPGAGRVKNLTKQTIVGLLDAHHIDHSACRTHRQLYALLMAHKREFAGARFKLRVPAWGRCLRTHSSSANPNADIILEAALSELPTEAWPMMQGAVNFSTL
modifications: atto647N (CoA-conjugated dye, attached by Sfp transferase) on the C-terminal ybbR tag
notes: also called UL9-atto647N; not shown: ybbR, C-terminal, kept; strepII, C-terminal, cleaved
Q: Which “stoichiometry N” value [5] does the source give for B2 here?
A: 2
